The supplement of paper PMC7125110
± gives the standard error. Variants at the floor of the assay were thinned out.

B1: glmS ribozyme (parent)
chain: AUAAAAGCGCCAGAACUACAGAAAUGUAGUUGACGAGGAGGAGGUUUAUCGAAUUUUCGGCGGAUGCCUCCAAA

Variants of: B1
Assay: self-cleavage kobs at 640 uM GlcN6P; higher = faster cleavage; RNA array
Settings: with glucosamine-6-phosphate
Outline: (§1)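 Barcoded glmS ribozyme variants on sequenced MiSeq chips were transcribed in situ by E. coli RNA polymerase and tracked through a hybridised Cy3 probe at 37 °C. Glucosamine-6-phosphate (40 μM to 10 mM) in HEPES/KCl/Mg(OAc)2 buffer was flowed in, and tiles were imaged over ~14 h. Signals were normalised to baseline and to non-cleaving reference variants; per-tile medians were fit to one- or two-exponential decays to give kobs. kcat and KM came from weighted Michaelis–Menten fits across concentrations.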

U45G U46G U55C G63A and C10A G41C A48U cannot be ordered by “self-cleavage kobs at 640 uM GlcN6P” value: under 1e-05 s⁻¹ for the first, under 1e-05 s⁻¹ for the second.

Compared with C67A U69A, G9U U30C U65G C70U is lower in “self-cleavage kobs at 640 uM GlcN6P” value: 0.000234 ± 4.1e-05 s⁻¹ for the first, under 1e-05 s⁻¹ for the second.

A12G A15C G40U and G9C A15U G26U G63C cannot be ordered by “self-cleavage kobs at 640 uM GlcN6P” value: under 1e-05 s⁻¹ for the first, under 1e-05 s⁻¹ for the second.

Compared with G9A G32C C61U, A6U C34G U47G C67U C68A is higher in “self-cleavage kobs at 640 uM GlcN6P” value: under 1e-05 s⁻¹ for the first, 0.000407 ± 0.00013 s⁻¹ for the second.

First: C16U U49G
Second: U31C G38U G41U G63C
The “self-cleavage kobs at 640 uM GlcN6P” value of the first is higher: 0.000174 ± 4.8e-05 s⁻¹ for the first, under 1e-05 s⁻¹ for the second.

C11G G35C A52U and C10U G60A C67A cannot be ordered by “self-cleavage kobs at 640 uM GlcN6P” value: under 1e-05 s⁻¹ for the first, under 1e-05 s⁻¹ for the second.

Going from C10U A33G U54A to G38U C67U C70U, the “self-cleavage kobs at 640 uM GlcN6P” value rises from under 1e-05 s⁻¹ to 0.000296 ± 0.00014 s⁻¹.

A39G G44A C58A and C11G G13C A48G cannot be ordered by “self-cleavage kobs at 640 uM GlcN6P” value: under 1e-05 s⁻¹ for the first, under 1e-05 s⁻¹ for the second.

A6G G35U C50U and A15U G35U A39C cannot be ordered by “self-cleavage kobs at 640 uM GlcN6P” value: under 1e-05 s⁻¹ for the first, under 1e-05 s⁻¹ for the second.

Going from A15U A42C C67U C70G to C8U A15C A33U G37C C71G, the “self-cleavage kobs at 640 uM GlcN6P” value rises from under 1e-05 s⁻¹ to 5.18e-05 ± 2.5e-05 s⁻¹.

Going from A42C A53U U56G to U47G G59A C67G, the “self-cleavage kobs at 640 uM GlcN6P” value rises from under 1e-05 s⁻¹ to 0.000579 ± 0.00015 s⁻¹.

A12G A39G C50A and G7A C8A G9A G62A cannot be ordered by “self-cleavage kobs at 640 uM GlcN6P” value: under 1e-05 s⁻¹ for the first, under 1e-05 s⁻¹ for the second.

Compared with A15U A33G G44U A48U, C10A A15G G32U C70G is higher in “self-cleavage kobs at 640 uM GlcN6P” value: under 1e-05 s⁻¹ for the first, 0.000197 ± 7.6e-05 s⁻¹ for the second.

G38C G41U C67U and C8G A14C G29C C34A C67U cannot be ordered by “self-cleavage kobs at 640 uM GlcN6P” value: under 1e-05 s⁻¹ for the first, under 1e-05 s⁻¹ for the second.

A33C G41A A53U and C8G G43A C67A cannot be ordered by “self-cleavage kobs at 640 uM GlcN6P” value: under 1e-05 s⁻¹ for the first, under 1e-05 s⁻¹ for the second.

U56G U57G U65C and G13U U31C G62A cannot be ordered by “self-cleavage kobs at 640 uM GlcN6P” value: under 1e-05 s⁻¹ for the first, under 1e-05 s⁻¹ for the second.

Going from U45C U47A to C11U G13U A14G G38C, the “self-cleavage kobs at 640 uM GlcN6P” value falls from 0.000335 ± 8.3e-05 s⁻¹ to under 1e-05 s⁻¹.

First: C34U C68U C70U
Second: U30G U31A U65A
The “self-cleavage kobs at 640 uM GlcN6P” value of the first is lower: under 1e-05 s⁻¹ for the first, 0.000791 ± 0.00013 s⁻¹ for the second.

U46G A53G G66U and G38U A64U C70G are within error of each other in “self-cleavage kobs at 640 uM GlcN6P” value: 7.95e-05 ± 2e-05 s⁻¹ for the first, 8.06e-05 ± 3.4e-05 s⁻¹ for the second.

Compared with C50G C61U C67U, G29U G32U G44C U65C is lower in “self-cleavage kobs at 640 uM GlcN6P” value: 0.000213 ± 4.4e-05 s⁻¹ for the first, under 1e-05 s⁻¹ for the second.

C34A G51A A52G and A12C G35A C70U cannot be ordered by “self-cleavage kobs at 640 uM GlcN6P” value: under 1e-05 s⁻¹ for the first, under 1e-05 s⁻¹ for the second.

A15U G38U G40C A52U C58U C61G and A39C G43A G66A cannot be ordered by “self-cleavage kobs at 640 uM GlcN6P” value: under 1e-05 s⁻¹ for the first, under 1e-05 s⁻¹ for the second.

G9U C10U C11A and C8U C16G A52U U65G G66A cannot be ordered by “self-cleavage kobs at 640 uM GlcN6P” value: under 1e-05 s⁻¹ for the first, under 1e-05 s⁻¹ for the second.

First: G7A A39U U49A
Second: C10A C67G C70A
The “self-cleavage kobs at 640 uM GlcN6P” value of the first is lower: under 1e-05 s⁻¹ for the first, 0.000293 ± 9.2e-05 s⁻¹ for the second.

First: C11U G32C C50G A52U
Second: G41A U54A
The “self-cleavage kobs at 640 uM GlcN6P” value of the first is lower: under 1e-05 s⁻¹ for the first, 0.000113 ± 2.9e-05 s⁻¹ for the second.

First: A15G G29U U55G A64G
Second: C8U G40C C71U
The “self-cleavage kobs at 640 uM GlcN6P” value of the first is higher: 0.000144 ± 2.7e-05 s⁻¹ for the first, under 1e-05 s⁻¹ for the second.

First: G13A U30G G41U U46C G63C
Second: A14C G41A C70U
The “self-cleavage kobs at 640 uM GlcN6P” value of the first is lower: under 1e-05 s⁻¹ for the first, 0.00173 ± 0.00026 s⁻¹ for the second.

Compared with G29C U30G C70U, U30G G32A C68U is 11-fold lower in “self-cleavage kobs at 640 uM GlcN6P” value: 0.000861 ± 0.00017 s⁻¹ for the first, 7.55e-05 ± 3.7e-05 s⁻¹ for the second.

Compared with G21U C70G, G35C A36C A42C G43C G51A is lower in “self-cleavage kobs at 640 uM GlcN6P” value: 0.000253 ± 5.1e-05 s⁻¹ for the first, under 1e-05 s⁻¹ for the second.

G9A A14G G38U and A14C A15C A39U G40U U49C cannot be ordered by “self-cleavage kobs at 640 uM GlcN6P” value: under 1e-05 s⁻¹ for the first, under 1e-05 s⁻¹ for the second.

C10A A53G C70G and A14G U54C C68G are within error of each other in “self-cleavage kobs at 640 uM GlcN6P” value: 0.000157 ± 4.8e-05 s⁻¹ for the first, 0.000112 ± 3e-05 s⁻¹ for the second.

A6U C10U G35C A48U G63A and U46A U49A U56C A64G cannot be ordered by “self-cleavage kobs at 640 uM GlcN6P” value: under 1e-05 s⁻¹ for the first, under 1e-05 s⁻¹ for the second.

For G38U G41A U47C, the “self-cleavage kobs at 640 uM GlcN6P” value was under 1e-05 s⁻¹.

Variants of: B1
Assay: self-cleavage kobs at 2500 uM GlcN6P; higher = faster cleavage; RNA array
Settings: with glucosamine-6-phosphate
Outline: as §1

U45G U46G U55C G63A and C10A G41C A48U cannot be ordered by “self-cleavage kobs at 2500 uM GlcN6P” value: under 1e-05 s⁻¹ for the first, under 1e-05 s⁻¹ for the second.

Going from C67A U69A to A6U C34G U47G C67U C68A, the “self-cleavage kobs at 2500 uM GlcN6P” value falls from 0.000247 ± 5.8e-05 s⁻¹ to 8.02e-05 ± 2.6e-05 s⁻¹ (3.1-fold).

Going from C16U U49G to C11G G13C A48G, the “self-cleavage kobs at 2500 uM GlcN6P” value falls from 0.000685 ± 0.00023 s⁻¹ to under 1e-05 s⁻¹.

A15U G35U A39C and A15U A42C C67U C70G cannot be ordered by “self-cleavage kobs at 2500 uM GlcN6P” value: under 1e-05 s⁻¹ for the first, under 1e-05 s⁻¹ for the second.

A15U A33G G44U A48U and U56G U57G U65C cannot be ordered by “self-cleavage kobs at 2500 uM GlcN6P” value: under 1e-05 s⁻¹ for the first, under 1e-05 s⁻¹ for the second.

Going from U45C U47A to U30G U31A U65A, the “self-cleavage kobs at 2500 uM GlcN6P” value rises from 0.000441 ± 0.00018 s⁻¹ to 0.000896 ± 0.00022 s⁻¹ (2-fold).

Going from U46G A53G G66U to C34A G51A A52G, the “self-cleavage kobs at 2500 uM GlcN6P” value falls from 0.000148 ± 5.2e-05 s⁻¹ to under 1e-05 s⁻¹.

A12C G35A C70U and C8U C16G A52U U65G G66A cannot be ordered by “self-cleavage kobs at 2500 uM GlcN6P” value: under 1e-05 s⁻¹ for the first, under 1e-05 s⁻¹ for the second.

First: G41A U54A
Second: C8U G40C C71U
The “self-cleavage kobs at 2500 uM GlcN6P” value of the first is higher: 0.000311 ± 8.8e-05 s⁻¹ for the first, under 1e-05 s⁻¹ for the second.

Going from G13A U30G G41U U46C G63C to A14C G41A C70U, the “self-cleavage kobs at 2500 uM GlcN6P” value rises from under 1e-05 s⁻¹ to 0.00489 ± 0.0012 s⁻¹.

Compared with G21U C70G, G35C A36C A42C G43C G51A is lower in “self-cleavage kobs at 2500 uM GlcN6P” value: 0.000154 ± 3.9e-05 s⁻¹ for the first, under 1e-05 s⁻¹ for the second.

First: C10A A53G C70G
Second: A14G U54C C68G
The “self-cleavage kobs at 2500 uM GlcN6P” value of the first is 2-fold higher: 0.000151 ± 4.6e-05 s⁻¹ for the first, 7.7e-05 ± 1.8e-05 s⁻¹ for the second.

With G38U G41A U47C the “self-cleavage kobs at 2500 uM GlcN6P” value was under 1e-05 s⁻¹.

Variants of: B1
Assay: self-cleavage kobs at 10000 uM GlcN6P; higher = faster cleavage; RNA array
Settings: with glucosamine-6-phosphate
Outline: as §1

First: G9A G32C C61U
Second: C16U U49G
The “self-cleavage kobs at 10000 uM GlcN6P” value of the first is lower: under 1e-05 s⁻¹ for the first, 0.000387 ± 6.5e-05 s⁻¹ for the second.

G7A C8A G9A G62A and A15U A33G G44U A48U cannot be ordered by “self-cleavage kobs at 10000 uM GlcN6P” value: under 1e-05 s⁻¹ for the first, under 1e-05 s⁻¹ for the second.

Compared with G41A U54A, A14C G41A C70U is 110-fold higher in “self-cleavage kobs at 10000 uM GlcN6P” value: 0.000101 ± 2.1e-05 s⁻¹ for the first, 0.0111 ± 0.0021 s⁻¹ for the second.

Compared with G21U C70G, G9A A14G G38U is lower in “self-cleavage kobs at 10000 uM GlcN6P” value: 9.23e-05 ± 2.3e-05 s⁻¹ for the first, under 1e-05 s⁻¹ for the second.
